The values that follow come from US20120321641A1 (TORAY INDUSTRIES, published 2012).

In experiment [1] the target is T1, human CAPRIN-1 protein on human cancer cells and in human cancer tissues (human, UniProt Q14444 2-709).
T1 construct: whole, on cells; Endogenous protein of the cell lines and tissue arrays; also called CAPRIN-1 protein expressed on the cell membrane surfaces of human cancer cell lines
T1 sequence (looked up): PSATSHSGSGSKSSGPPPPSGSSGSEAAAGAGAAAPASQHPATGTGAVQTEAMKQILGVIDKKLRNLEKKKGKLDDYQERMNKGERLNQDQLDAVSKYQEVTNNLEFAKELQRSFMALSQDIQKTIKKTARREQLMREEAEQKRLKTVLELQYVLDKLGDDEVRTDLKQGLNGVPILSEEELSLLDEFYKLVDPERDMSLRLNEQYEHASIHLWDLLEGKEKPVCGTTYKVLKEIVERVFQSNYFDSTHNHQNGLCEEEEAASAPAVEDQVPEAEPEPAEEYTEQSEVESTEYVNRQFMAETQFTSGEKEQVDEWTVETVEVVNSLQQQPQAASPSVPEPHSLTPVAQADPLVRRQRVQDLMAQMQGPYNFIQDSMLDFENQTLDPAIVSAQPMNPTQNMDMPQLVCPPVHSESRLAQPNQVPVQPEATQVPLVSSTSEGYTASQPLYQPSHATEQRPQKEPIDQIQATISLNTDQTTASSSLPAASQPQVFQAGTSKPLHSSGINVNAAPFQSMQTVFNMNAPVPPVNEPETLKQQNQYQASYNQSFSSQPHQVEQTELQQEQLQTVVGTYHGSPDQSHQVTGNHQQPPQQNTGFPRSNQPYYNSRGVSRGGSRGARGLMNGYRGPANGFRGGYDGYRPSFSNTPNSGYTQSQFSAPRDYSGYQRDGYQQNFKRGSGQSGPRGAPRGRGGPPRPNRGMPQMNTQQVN
The experiment can be described thus: immunohistochemical staining of paraffin-embedded human cancer tissue arrays. The procedure:
After 3 hours of treatment of the human breast cancer tissue array at 60° C., the array was placed in a staining bottle filled with xylene, followed by xylene replacement being repeated three times every 5 minutes. Next, a similar procedure was performed with ethanol and PBS-T instead of xylene. The human breast cancer tissue array was placed in a staining bottle filled with 10 mM citrate buffer (pH 6.0) containing 0.05% Tween20. After 5 minutes of treatment at 125° C., the array was left to stand at room temperature for 40 minutes or more. Excess water around the sections was removed with Kimwipes, the sections were circled with a DAKOPEN, and Peroxidase Block (DAKO) was added dropwise in appropriate amounts. After left to stand at room temperature for 5 minutes, the array was placed in a staining bottle filled with PBS-T, followed by PBS-T replacement being repeated three times every 5 minutes. As a blocking solution, a PBS-T solution containing 10% FBS was placed on the array, and then the array was left to stand in a moist chamber at room temperature for 1 hour. Next, a solution of the monoclonal antibody #1 of 10 μg/ml adjusted with a PBS-T solution containing 5% FBS, which reacts with cancer cell surfaces and had been prepared in Example 4, was placed on, and the array was left to stand overnight in a moist chamber at 4° C. […]

In experiment [2] the target is T2, recombinant human CAPRIN-1 protein having the amino acid sequence represented by SEQ ID NO: 2 (human, UniProt Q14444 2-709).
T2 construct: The His-tag was cleaved off with enterokinase; also called antigen protein (human CAPRIN-1)
T2 sequence: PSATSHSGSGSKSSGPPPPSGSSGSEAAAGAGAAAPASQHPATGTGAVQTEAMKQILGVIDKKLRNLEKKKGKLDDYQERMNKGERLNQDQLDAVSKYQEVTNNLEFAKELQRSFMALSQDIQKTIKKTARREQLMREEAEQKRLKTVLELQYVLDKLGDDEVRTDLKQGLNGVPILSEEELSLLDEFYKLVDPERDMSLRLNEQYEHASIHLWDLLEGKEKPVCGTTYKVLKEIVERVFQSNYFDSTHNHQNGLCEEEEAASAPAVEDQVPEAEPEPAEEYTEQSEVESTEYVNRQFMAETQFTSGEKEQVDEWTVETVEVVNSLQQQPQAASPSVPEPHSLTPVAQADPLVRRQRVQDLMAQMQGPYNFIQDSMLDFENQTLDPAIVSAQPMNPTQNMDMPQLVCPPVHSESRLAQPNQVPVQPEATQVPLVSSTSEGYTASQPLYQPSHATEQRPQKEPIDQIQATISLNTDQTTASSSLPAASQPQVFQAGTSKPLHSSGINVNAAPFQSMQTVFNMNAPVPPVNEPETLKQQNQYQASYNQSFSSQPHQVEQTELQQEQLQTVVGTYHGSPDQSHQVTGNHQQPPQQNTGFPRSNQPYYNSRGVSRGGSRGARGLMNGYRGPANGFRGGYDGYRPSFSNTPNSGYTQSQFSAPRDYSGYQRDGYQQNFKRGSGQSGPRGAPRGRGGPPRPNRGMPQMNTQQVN
The experiment can be described thus: ELISA; CAPRIN-1 protein coated at 1 ug/ml, hybridoma culture supernatant, HRP anti-chicken IgY. The procedure: The thus selected hybridomas were added to a 96-well plate at 0.5 cells per well and then cultured. After 1 week, hybridomas that had formed single colonies in wells were observed. These cells in the wells were further cultured, and then hybridomas were selected using as a marker the binding affinity of antibodies produced by the cloned hybridomas to the CAPRIN-1 protein. The CAPRIN-1 protein solution (1 μg/ml) prepared in Example 2 was added to a 96-well plate at 100 μl per well, and then left to stand at 4° C. for 18 hours. Each well was washed with PBS-T three times, 400 μl of a 0.5% BSA solution was added per well, and then the resultant was left to stand at room temperature for 3 hours. The solution was removed, and then the wells were washed three times with 400 μl of PBS-T per well. 100 μl of each culture supernatant of the above-obtained hybridomas was added per well, and then the plate was left to stand at room temperature for 2 hours. After washing each well three times with PBS-T, 100 μl of an HRP-labeled anti-chicken IgY antibody (SIGMA) diluted 5000-fold with PBS was added per well and then left to stand at room temperature for 1 hour. […] After color development, 100 μl of 1N sulfuric acid was added per well to stop the reaction and then absorbances at 450 nm and 595 nm were measured using an absorption spectrometer. […]

In experiment [3] the target is T1, human CAPRIN-1 protein on human cancer …. As to the kind of experiment: flow cytometry on MDA-MB-231V human breast cancer cells, hybridoma culture supernatant, FITC anti-chicken IgG. The procedure:
Next, of those monoclonal antibodies, antibodies reactive with the cell surfaces of breast cancer cells expressing CAPRIN-1 were selected. Specifically, 5×10⁵ cells of the human breast cancer cell line MDA-MB-231V were subjected to centrifugation in a 1.5-ml microcentrifuge tube, and 100 μl of the culture supernatant of each of the above hybridomas was added to the tube, and then the tube was left to stand on ice for 1 hour. After washing with PBS, an FITC-labeled goat anti-chicken IgG (H+L) antibody (SouthernBiotech) diluted 30-fold with PBS containing 0.1% FBS was added, and then the resultant was left to stand on ice for 1 hour. After washing with PBS, fluorescence intensity was measured using a FACS caliber (Becton, Dickinson and Company). Meanwhile, procedures similar to the above were performed for medium for culturing hybridomas, so that a control sample was obtained.
On the technique in general: A flow cytometer gives signals particle by particle.

B1: monoclonal antibody #1 prepared in Example 4 (antibody, V domains shown)
VH: AVTLDESGGGLQTPGGGLSLVCKASGFTFSSFDMGWVRQAPGKGLEFVAQINDAGSRTWYATAVKGRATISRDNGQTTVRLQLNNLRAEDTGTYYCTRGSGYVGAGAIDAWGHGTEVIVS
VL: AALTQPSSVSANPGETVKITCSGGSGYYGWYQQQKSPGSAPVTVIYQNDKRPSDIPSRFSGSGSGSTNTLTITGVQAEDEAVYFCGRYDSTDSGIFGAGTTLTVL
notes: also called anti-CAPRIN-1 monoclonal antibody
For B1, the binding result in experiment [1] is listed as “binds”.

B2: chicken monoclonal antibody #1 (antibody, V domains shown)
VH: AVTLDESGGGLQTPGGGLSLVCKASGFTFSSFDMGWVRQAPGKGLEFVAQINDAGSRTWYATAVKGRATISRDNGQTTVRLQLNNLRAEDTGTYYCTRGSGYVGAGAIDAWGHGTEVIVS
VL: AALTQPSSVSANPGETVKITCSGGSGYYGWYQQQKSPGSAPVTVIYQNDKRPSDIPSRFSGSGSGSTNTLTITGVQAEDEAVYFCGRYDSTDSGIFGAGTTLTVL
notes: Chicken hybridoma antibody tested as culture supernatant and detected with anti-chicken IgY/IgG secondary antibodies; the chicken constant regions are not; also called anti-CAPRIN-1 monoclonal antibody #1
As to B2, the binding result in experiment [2] and in experiment [3] was “binds” in each case.
